Results on 1 molecule are retold here after publication PMC5481773, “Structural insights into the function of ZRANB3 in replication stress response” (Nature Communications, 2017).

Experiment [1] can be described thus: NADH-coupled ATPase assay of ZRANB3 proteins. It is filed as biochemical. The settings on record: 150 nM ZRANB3, 5 mM ATP, 0.5 μM flap DNA, 24 °C, average rates. The protocol:
The NADH-coupled ATPase assay is based on a reaction in which the regeneration of hydrolysed ATP is coupled to the oxidation of NADH[59]. It was used as described, with minor modifications. ZRANB3 (150 nM) was added to a 150 μl reaction containing 25 mM Tris-Cl pH 7.5, 13 mM MgCl2, 1.8 mM DTT, 100 μg ml^−1 BSA, 3 mM phosphoenolpyruvate, 36 U ml^−1 pyruvate kinase, 20 U ml^−1 lactate dehydrogenase, 0.5 μM flap DNA, and 5 mM ATP, with 750 μM NADH added immediately before ZRANB3. Reactions were mixed for 1 min on a shaker at 23 °C and analysed by measuring A340 nm at 20 s intervals during 60 min, on a Spectramax 250 microplate spectrophotometer at 24 °C. Linear titration of freshly prepared NADH was performed to obtain a standard curve for units of absorbance mM^−1 NADH. ATPase rates were calculated from data collected between time points where product formation was linear with respect to time.

Another experiment concerns U2OS cells. Briefly: Colocalization of YFP-ZRANB3 foci with endogenous PCNA. The class given is cell-based. The settings on record: average of three experiments. From the text:
Figure 5 PCNA-dependent recruitment of ZRANB3. (a) Recruitment of FEN1 to the sites of laser induced DNA damage is abrogated by the mutations in the PIP box (Q337A, F343A and F344A). U2OS cells were transiently transfected with the indicated YFP constructs and analysed by live-cell imaging. Shown are representative images at the indicated time points post damage. (b) Recruitment of the YFP-tagged PIP box and APIM motif to the sites of laser induced DNA damage. Recruitment is abrogated by the mutations of the conserved residues in the PIP box and the APIM motif. […] The percentage of cells containing ZRANB3 foci that colocalize with PCNA was determined. […]
U2OS cells (ATCC) were seeded onto glass coverslips and transfected with the YFP constructs using Lipofectamine 2000 (Life Technologies). […] The coverslips were mounted in ProLong Gold anti-fade reagent with DAPI (Life Technologies) and analysed by confocal microscopy.
For the recruitment of ZRANB3 to stalled replication forks, U2OS cells were seeded onto glass coverslips and transfected with YFP-ZRANB3 constructs. […] Finally, the samples were analysed by confocal microscopy. For each experiment, more than 100 cells were counted, and the results from three independent transfections were pooled for statistical analyses.

B1: WT ZRANB3: full-length human ZRANB3, recombinant; YFP-tagged in the cell assay (protein)
chain: MPRVHNIKKSLTPHISCVTNESDNLLDFLPDRLRAKLLPFQKDGIIFALKRNGRCMVADEMGLGKTIQAIGITYFYKEEWPLLIVVPSSLRYPWTEEIEKWIPELSPEEINVIQNKTDVRRMSTSKVTVLGYGLLTADAKTLIDALNNQNFKVVIVDESHYMKSRNATRSRILLPIVQKARRAILLTGTPALGRPEELFMQIEALFPQKFGRWTDYAKRYCNAHIRYFGKRPQWDCRGASNLNELHQLLSDIMIRRLKTEVLTQLPPKVRQRIPFDLPSAAAKELNTSFEEWEKIMRTPNSGAMETVMGLITRMFKQTAIAKAGAVKDYIKMMLQNDSLKFLVFAHHLSMLQACTEAVIENKTRYIRIDGSVSSSERIHLVNQFQKDPDTRVAILSIQAAGQGLTFTAASHVVFAELYWDPGHIKQAEDRAHRIGQCSSVNIHYLIANGTLDTLMWGMLNRKAQVTGSTLNGRKEKIQAEEGDKEKWDFLQFAEAWTPNDSSEELRKEALFTHFEKEKQHDIRSFFVPQPKKRQLMTSCDESKRFREENTVVSSDPTKTAARDIIDYESDVEPETKRLKLAASEDHCSPSEETPSQSKQIRTPLVESVQEAKAQLTTPAFPVEGWQCSLCTYINNSELPYCEMCETPQGSAVMQIDSLNHIQDKNEKDDSQKDTSKKVQTISDCEKQALAQSEPGQLADSKEETPKIEKEDGLTSQPGNEQWKSSDTLPVYDTLMFCASRNTDRIHIYTKDGKQMSCNFIPLDIKLDLWEDLPASFQLKQYRSLILRFVREWSSLTAMKQRIIRKSGQLFCSPILALEEITKQQTKQNCTKRYITKEDVAVASMDKVKNVGGHVRLITKESRPRDPFTKKLLEDGACVPFLNPYTVQADLTVKPSTSKGYLQAVDNEGNPLCLRCQQPTCQTKQACKANSWDSRFCSLKCQEEFWIRSNNSYLRAKVFETEHGVCQLCNVNAQELFLRLRDAPKSQRKNLLYATWTSKLPLEQLNEMIRNPGEGHFWQVDHIKPVYGGGGQCSLDNLQTLCTVCHKERTARQAKERSQVRRQSLASKHGSDITRFLVKK
modifications: left off: His6, N-terminal, cleaved
notes: full-length human ZRANB3, recombinant; YFP-tagged in the cell assay
In experiment [1] (A340 nm), B1 displayed an ATP hydrolysis rate of 16.59 ± 0.34 µmol/L/min. This molecule returned a k in experiment [1] of 110.65 ± 2.27 min⁻¹. Also, the “cells that formed ZRANB3 foci (colocalizing with PCNA)” value with U2OS cells (U2OS cells transfected with YFP-ZRANB3, UV 40 J m^−2, 6 h recovery) was > 95%; in the experiment with U2OS cells (U2OS cells transfected with YFP-ZRANB3, undamaged conditions), ~20%.
